According to IntAct's records for PubMed 21217698:

B1: DnaJ homolog subfamily B member 11 (Mus musculus), Q99KV1 (parent)
chain: MAPQNLSTFCLLLLYLIGTVIAGRDFYKILGVPRSASIKDIKKAYRKLALQLHPDRNPDDPQAQEKFQDLGAAYEVLSDSEKRKQYDTYGEEGLKDGHQSSHGDIFSHFFGDFGFMFGGTPRQQDRNIPRGSDIIVDLEVTLEEVYAGNFVEVVRNKPVARQAPGKRKCNCRQEMRTTQLGPGRFQMTQEVVCDECPNVKLVNEERTLEVEIEPGVRDGMEYPFIGEGEPHVDGEPGDLRFRIKVVKHRIFERRGDDLYTNVTVSLVEALVGFEMDITHLDGHKVHISRDKITRPGAKLWKKGEGLPNFDNNNIKGSLIITFDVDFPKEQLTEEAKEGIKQLLKQGPVQKVYNGLQGY

Variants of: B1
Details: with bip_mouse Hspa5, P20029
Sequence of bip_mouse Hspa5, P20029 (P20029 whole entry): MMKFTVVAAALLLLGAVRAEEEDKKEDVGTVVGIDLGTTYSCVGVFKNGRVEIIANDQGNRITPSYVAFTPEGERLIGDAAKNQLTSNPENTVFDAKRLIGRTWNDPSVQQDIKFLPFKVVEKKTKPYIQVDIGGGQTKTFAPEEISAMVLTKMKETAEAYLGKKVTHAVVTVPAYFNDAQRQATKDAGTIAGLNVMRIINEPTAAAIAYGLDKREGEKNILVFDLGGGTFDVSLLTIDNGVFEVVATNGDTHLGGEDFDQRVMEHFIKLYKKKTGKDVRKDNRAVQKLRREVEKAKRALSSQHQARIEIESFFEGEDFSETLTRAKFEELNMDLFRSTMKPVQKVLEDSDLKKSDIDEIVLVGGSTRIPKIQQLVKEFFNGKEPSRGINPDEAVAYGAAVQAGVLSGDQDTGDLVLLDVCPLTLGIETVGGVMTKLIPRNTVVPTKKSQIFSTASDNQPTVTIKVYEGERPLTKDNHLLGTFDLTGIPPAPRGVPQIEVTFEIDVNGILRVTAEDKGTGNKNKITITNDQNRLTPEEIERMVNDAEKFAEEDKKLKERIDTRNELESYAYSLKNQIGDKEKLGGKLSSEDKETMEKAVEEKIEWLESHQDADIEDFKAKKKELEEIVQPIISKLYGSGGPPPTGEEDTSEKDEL

Which “effect of a mutation on the interaction” value does the source give for H53Q here?
The value was “disrupting interaction”.
